Measurements: patent US6803203B1, “DNA-PK assay” (Brookhaven Science Associates, priority 1993, dated 2004)

B1: recombinant wild-type mouse p53: wild-type mouse p53 purified from Sf9 insect cells infected with recombinant virus NPVp53 (protein, UniProt P02340 1-390, looked up)
Cellular tumor antigen p53: MTAMEESQSDISLELPLSQETFSGLWKLLPPEDILPSPHCMDDLLLPQDVEEFFEGPSEALRVSGAPAAQDPVTETPGPVAPAPATPWPLSSFVPSQKTYQGNYGFHLGFLQSGTAKSVMCTYSPPLNKLFCQLAKTCPVQLWVSATPPAGSRVRAMAIYKKSQHMTEVVRRCPHHERCSDGDGLAPPQHLIRVEGNLYPEYLEDRQTFRHSVVVPYEPPEAGSEYTTIHYKYMCNSSCMGGMNRRPILTIITLEDSSGNLLGRDSFEVRVCACPGRDRRTEEENFRKKEVLCPELPPGSAKRALPTCTSASPPQKKKPLDGEYFTLKIRGRKRFEMFRELNEALELKDAHATEESGDSRAHSSYLKTKKGQSTSRHKKTMVKKVGPDSD
B2: substrate 1: wild-type recombinant substrate: Ser Gln Glu DNA-PK site and wild-type Oct-1 POU domain; product of p349SUB1 (protein)
chain: MPEESQETFEDLWKLLPGHHHHHHGMSGGMEEPSDLEELEQFAKTFKQRRIKLGFTQGDVGLAMGKLYGNDFSQTTISRFEALNLSFKNMCKLKPLLEKWLNDAENLSSDSSLSSPSALNSPGIEGLSRRRKKRTSIETNIRVALEKSFLENQKPTSEEITMIADQLNMEKEVIRVWFCNRRQKEKRINPQPELAPEDPED
modifications: POUSUB1 artificial DNA-PK substrate
notes: wild-type recombinant substrate: Ser Gln Glu DNA-PK site and wild-type Oct-1 POU domain; product of p349SUB1

Legend:
DNA-PK [1] = target: T1, DNA-PK (Homo sapiens, UniProt P78527); test: Phosphorylation of mouse p53 by DNA-PK as a function of DNA concentration; assay type: biochemical; conditions: calf thymus DNA 100 μg/ml
T1 construct: DNA-PK was purified from HeLa cells; endogenous in cells; host or cells: HeLa S3 cells; the endogenous enzyme was purified in house by chromatography
Description: To determine whether DNA binding affected p53 phosphorylation by DNA-PK, the rate of phosphorylation of recombinant wild-type mouse p53 was measured as a function of DNA concentration. At low calf thymus DNA concentrations (0 to approximately 10 μg/ml), the initial rate of p53 phosphorylation increased sharply but then decreased as the DNA concentration was further increased. At DNA concentrations of 100 μg/ml, the rate of p53 phosphorylation fell to approximately 25% of the rate at 5 μg/ml. A similar dependence of phosphorylation rate on calf thymus DNA concentration was observed using SV40 TAg or the human Oct-1 POU domain as substrates.

DNA-PK [2] = target: T1, DNA-PK; test: Phosphorylation of recombinant protein substrates by purified DNA-PK (SDS-PAGE, phosphorimage); assay type: biochemical
Description: The recombinant protein substrates, a total of six, (at approximately 0.1 mg/ml final concentration) were separately mixed with hsp90 in a phosphorylation reaction with purified DNA-PK (0.6 pg, 0.02 units/assay) without (−) or with (+) 5 μg/ml calf thymus DNA, in the presence of ^32P-ATP for 30 minutes at 30° C. as described by Lees-Miller, et al., Mol. Cell. Biol., 12:5041-5049 (1992). The phosphorylation reactions were stopped with SDS sample buffer and analyzed with SDS-PAGE. The gel was fixed, stained with Coomassie brilliant blue, dried and developed by autoradiographic procedures. The results of which can be seen in FIG. 9.

Molecule	rate of p53 phosphorylation relative to the rate at 5 μg/ml DNA (DNA-PK [1])	increase in phosphate incorporation by addition of double stranded DNA (DNA-PK [2]; 5 μg/ml calf thymus DNA compared to no addition of DNA, 30 minutes at 30° C.)	phosphorylation by purified DNA-PK (in words) (DNA-PK [2]; DNA-dependent, compared with hsp90)
B1	approximately 25%		
B2		20 fold	equal to, if not better than, hsp90
